The results in this text go back to US12344663 (CDR LIFE, dated 2025).

For assay [1], the target named is T1, human complement C3 (human, UniProt P01024 23-1663). Put plainly: cell-based or functional assay.
Assay [2] concerns the target T2, recombinant wild-type human C3 (human, UniProt P01024 23-1663, limits assumed).
T2 construct: Expressed in CHO cells with an N-terminal 6×His tag; also called recombinant C3; wildtype C3
As to the kind of experiment: SPR (Biacore T100), target immobilized, single cycle kinetics, 1:1 Langmuir fit. As to the method:
(§1) The kinetic parameters of the candidates are determined using a surface plasmon resonance (SPR) and Biacore T100 device. C3 and different variants thereof (Table 19) are immobilized as a ligand on a HC30M SPR sensor chip (XanTec bionanalytics, Germany) using EDC/[…] linking chemistry. Five increasing concentrations of each molecule (analyte) are consecutively injected using the single cycle kinetics (SCK) mode to determine the kinetic parameters. Regeneration between the candidates is done with 10 mM glycine*HCl, 2 M NaCl, pH 3.5. The data is fitted to a 1:1 Langmuir binding model and the kinetic parameters of on-rate (ka), off-rate (kd), and affinity […] were determined.
On the technique in general: Surface plasmon resonance follows binding to a sensor surface in real time, without labels.

In assay [3] the target is T1, human complement C3. The assay is described as above. As to the method:
as §1

The target in assay [4] is T3, human C3 P314L (human, UniProt P01024 23-1663, limits assumed).
T3 construct: Expressed in CHO cells with an N-terminal 6×His tag; also called C3 SNP1 P314L; C3 SNP P314L
T3 sequence (P01024 other isoform, or with tags, fused parts or gaps P314L P314L limits assumed): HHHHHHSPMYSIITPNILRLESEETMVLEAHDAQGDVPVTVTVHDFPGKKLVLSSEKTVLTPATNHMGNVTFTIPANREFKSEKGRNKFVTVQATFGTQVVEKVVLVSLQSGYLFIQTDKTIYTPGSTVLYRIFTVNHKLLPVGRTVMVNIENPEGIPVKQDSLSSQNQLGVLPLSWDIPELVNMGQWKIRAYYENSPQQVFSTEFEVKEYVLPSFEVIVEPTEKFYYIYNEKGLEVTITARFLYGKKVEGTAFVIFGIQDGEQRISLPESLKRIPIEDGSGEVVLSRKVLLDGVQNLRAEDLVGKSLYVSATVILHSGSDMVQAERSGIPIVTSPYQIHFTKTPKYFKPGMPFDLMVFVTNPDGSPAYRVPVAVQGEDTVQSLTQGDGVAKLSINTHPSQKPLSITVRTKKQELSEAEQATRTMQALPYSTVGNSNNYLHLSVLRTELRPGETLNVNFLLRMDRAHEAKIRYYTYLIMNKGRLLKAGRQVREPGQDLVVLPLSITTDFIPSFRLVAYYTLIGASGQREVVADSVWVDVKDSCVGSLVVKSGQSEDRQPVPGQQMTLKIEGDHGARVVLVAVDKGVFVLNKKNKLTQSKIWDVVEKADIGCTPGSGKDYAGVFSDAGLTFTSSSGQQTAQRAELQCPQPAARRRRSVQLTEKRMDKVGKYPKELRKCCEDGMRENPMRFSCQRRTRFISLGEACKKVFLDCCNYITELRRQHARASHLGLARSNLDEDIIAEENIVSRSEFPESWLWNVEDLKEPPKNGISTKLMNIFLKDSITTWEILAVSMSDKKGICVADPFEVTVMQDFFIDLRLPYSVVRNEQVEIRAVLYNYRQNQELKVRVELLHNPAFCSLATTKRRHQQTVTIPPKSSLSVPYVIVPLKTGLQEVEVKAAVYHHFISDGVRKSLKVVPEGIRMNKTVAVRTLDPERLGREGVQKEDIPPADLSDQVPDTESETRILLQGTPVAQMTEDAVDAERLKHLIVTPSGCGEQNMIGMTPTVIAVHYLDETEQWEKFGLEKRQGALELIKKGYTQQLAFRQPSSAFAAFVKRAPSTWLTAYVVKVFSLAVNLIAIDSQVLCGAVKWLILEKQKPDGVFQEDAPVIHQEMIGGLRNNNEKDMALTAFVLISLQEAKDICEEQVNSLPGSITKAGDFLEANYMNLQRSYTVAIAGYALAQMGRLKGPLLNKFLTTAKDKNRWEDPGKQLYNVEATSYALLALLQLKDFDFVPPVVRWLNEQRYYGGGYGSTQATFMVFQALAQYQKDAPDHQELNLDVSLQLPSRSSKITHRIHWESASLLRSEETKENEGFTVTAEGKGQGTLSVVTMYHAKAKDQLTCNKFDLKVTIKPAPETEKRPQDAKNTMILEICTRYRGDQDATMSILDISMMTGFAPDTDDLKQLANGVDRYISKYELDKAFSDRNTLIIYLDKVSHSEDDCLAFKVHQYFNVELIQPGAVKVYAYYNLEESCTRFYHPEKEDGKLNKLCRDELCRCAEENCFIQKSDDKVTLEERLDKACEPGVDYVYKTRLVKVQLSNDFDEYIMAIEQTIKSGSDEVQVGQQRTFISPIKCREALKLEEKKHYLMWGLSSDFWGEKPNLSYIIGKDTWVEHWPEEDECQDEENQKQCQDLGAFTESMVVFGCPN
Described as above. Here is the method: as §1

For assay [5], the target named is T4, human C3b (human, UniProt P01024 23-667; P01024 749-1663, limits assumed).
T4 construct: domain: C3b; also called C3 cleavage fragments C3b
T4 sequence (P01024 23-667 limits assumed, chain 1 of 2): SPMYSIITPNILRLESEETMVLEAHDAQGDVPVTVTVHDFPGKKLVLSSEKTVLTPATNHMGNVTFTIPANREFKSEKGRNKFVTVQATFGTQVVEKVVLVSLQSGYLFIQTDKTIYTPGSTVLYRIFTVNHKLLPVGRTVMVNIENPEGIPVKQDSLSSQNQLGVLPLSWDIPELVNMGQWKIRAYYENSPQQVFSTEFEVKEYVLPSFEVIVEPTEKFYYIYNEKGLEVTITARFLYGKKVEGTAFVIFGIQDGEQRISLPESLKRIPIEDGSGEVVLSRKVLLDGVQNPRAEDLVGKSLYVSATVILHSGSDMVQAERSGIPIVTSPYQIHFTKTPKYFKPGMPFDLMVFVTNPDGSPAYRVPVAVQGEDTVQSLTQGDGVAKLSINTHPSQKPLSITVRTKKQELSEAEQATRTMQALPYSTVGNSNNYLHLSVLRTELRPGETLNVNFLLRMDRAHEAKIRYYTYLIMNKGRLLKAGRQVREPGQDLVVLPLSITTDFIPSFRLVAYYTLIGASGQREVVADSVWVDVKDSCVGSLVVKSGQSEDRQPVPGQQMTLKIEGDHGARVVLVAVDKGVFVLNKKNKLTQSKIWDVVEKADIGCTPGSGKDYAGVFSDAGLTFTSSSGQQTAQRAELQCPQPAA
T4 sequence (P01024 749-1663 limits assumed, chain 2 of 2): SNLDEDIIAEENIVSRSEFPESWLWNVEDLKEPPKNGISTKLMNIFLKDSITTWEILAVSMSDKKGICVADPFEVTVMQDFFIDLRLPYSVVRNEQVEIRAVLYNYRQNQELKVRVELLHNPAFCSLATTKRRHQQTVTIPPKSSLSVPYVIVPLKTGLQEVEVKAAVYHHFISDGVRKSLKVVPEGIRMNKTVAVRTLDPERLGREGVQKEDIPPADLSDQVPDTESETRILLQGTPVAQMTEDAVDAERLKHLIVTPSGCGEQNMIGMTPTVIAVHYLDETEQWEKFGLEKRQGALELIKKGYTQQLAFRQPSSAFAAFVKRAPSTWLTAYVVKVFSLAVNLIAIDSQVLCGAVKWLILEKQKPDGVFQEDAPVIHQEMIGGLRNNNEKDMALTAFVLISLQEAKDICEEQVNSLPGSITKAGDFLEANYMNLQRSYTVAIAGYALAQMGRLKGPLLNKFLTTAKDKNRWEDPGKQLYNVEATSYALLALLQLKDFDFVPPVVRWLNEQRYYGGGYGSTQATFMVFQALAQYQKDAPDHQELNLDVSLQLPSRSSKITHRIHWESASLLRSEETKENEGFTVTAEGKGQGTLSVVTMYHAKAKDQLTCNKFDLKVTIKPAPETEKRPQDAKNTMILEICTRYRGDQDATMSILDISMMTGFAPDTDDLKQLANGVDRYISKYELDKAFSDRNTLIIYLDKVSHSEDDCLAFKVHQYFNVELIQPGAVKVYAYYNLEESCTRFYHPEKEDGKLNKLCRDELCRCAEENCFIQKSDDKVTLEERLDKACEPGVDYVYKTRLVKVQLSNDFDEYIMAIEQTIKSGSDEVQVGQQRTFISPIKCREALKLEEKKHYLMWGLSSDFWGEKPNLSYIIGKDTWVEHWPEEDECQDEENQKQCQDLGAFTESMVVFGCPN
The description is as above. Here is the method: as §1

Assay [6] deals with T5, human C3 R102G (human, UniProt P01024 23-1663, limits assumed).
T5 construct: Expressed in CHO cells with an N-terminal 6×His tag; also called C3 SNP2 R102G; C3 SNP R102G
T5 sequence (P01024 other isoform, or with tags, fused parts or gaps R102G R102G limits assumed): as the sequence (P01024 other isoform, or with tags, fused parts or gaps P314L P314L limits assumed) above, with R86G, L298P counted along it
Described as above. As to the method: as §1

The target in assay [7] is T6, cynomolgus C3 (cynomolgus (Macaca fascicularis)).
T6 construct: also called cyno C3
The assay is described as above. Here is the method:
as §1

Assay [8] addresses T1, human complement C3. As to the kind of experiment: method not given.
The target in assay [9] is T4, human C3b. As to the kind of experiment: method not given.
Assay [10] addresses T1, human complement C3. Put plainly: SPR (Biacore T100), target immobilized, single cycle kinetics, 1:1 Langmuir fit. Here is the method:
as §1
This is another data set of the same source.

Assay [11] addresses T4, human C3b. The description is as above. Here is the method:
as §1
The source holds these as a separate data set.

For assay [12], the target named is T1, human complement C3. As to the kind of experiment: affinity of the purified scFv, method not given.
Assay [13] deals with T1, human complement C3. As to the kind of experiment: method not given; reference Clone IV.
The target of assay [14] is T4, human C3b. Put plainly: method not given; reference Clone IV.
For assay [15], the target named is T4, human C3b. Put plainly: SPR; reference: the same molecule on intact human C3. As to the method:
as §1

A word on the Kd: it is a measure of binding affinity in units of concentration. The koff is a measure of how fast the partners let go of each other. The kon is the rate constant with which the complex forms.

Numbering of substitutions follows the chain as printed.

T2 sequence (P01024 other isoform, or with tags, fused parts or gaps limits assumed): as the sequence (P01024 other isoform, or with tags, fused parts or gaps P314L P314L limits assumed) above, with L298P counted along it
T1 sequence (P01024 23-1663 limits assumed): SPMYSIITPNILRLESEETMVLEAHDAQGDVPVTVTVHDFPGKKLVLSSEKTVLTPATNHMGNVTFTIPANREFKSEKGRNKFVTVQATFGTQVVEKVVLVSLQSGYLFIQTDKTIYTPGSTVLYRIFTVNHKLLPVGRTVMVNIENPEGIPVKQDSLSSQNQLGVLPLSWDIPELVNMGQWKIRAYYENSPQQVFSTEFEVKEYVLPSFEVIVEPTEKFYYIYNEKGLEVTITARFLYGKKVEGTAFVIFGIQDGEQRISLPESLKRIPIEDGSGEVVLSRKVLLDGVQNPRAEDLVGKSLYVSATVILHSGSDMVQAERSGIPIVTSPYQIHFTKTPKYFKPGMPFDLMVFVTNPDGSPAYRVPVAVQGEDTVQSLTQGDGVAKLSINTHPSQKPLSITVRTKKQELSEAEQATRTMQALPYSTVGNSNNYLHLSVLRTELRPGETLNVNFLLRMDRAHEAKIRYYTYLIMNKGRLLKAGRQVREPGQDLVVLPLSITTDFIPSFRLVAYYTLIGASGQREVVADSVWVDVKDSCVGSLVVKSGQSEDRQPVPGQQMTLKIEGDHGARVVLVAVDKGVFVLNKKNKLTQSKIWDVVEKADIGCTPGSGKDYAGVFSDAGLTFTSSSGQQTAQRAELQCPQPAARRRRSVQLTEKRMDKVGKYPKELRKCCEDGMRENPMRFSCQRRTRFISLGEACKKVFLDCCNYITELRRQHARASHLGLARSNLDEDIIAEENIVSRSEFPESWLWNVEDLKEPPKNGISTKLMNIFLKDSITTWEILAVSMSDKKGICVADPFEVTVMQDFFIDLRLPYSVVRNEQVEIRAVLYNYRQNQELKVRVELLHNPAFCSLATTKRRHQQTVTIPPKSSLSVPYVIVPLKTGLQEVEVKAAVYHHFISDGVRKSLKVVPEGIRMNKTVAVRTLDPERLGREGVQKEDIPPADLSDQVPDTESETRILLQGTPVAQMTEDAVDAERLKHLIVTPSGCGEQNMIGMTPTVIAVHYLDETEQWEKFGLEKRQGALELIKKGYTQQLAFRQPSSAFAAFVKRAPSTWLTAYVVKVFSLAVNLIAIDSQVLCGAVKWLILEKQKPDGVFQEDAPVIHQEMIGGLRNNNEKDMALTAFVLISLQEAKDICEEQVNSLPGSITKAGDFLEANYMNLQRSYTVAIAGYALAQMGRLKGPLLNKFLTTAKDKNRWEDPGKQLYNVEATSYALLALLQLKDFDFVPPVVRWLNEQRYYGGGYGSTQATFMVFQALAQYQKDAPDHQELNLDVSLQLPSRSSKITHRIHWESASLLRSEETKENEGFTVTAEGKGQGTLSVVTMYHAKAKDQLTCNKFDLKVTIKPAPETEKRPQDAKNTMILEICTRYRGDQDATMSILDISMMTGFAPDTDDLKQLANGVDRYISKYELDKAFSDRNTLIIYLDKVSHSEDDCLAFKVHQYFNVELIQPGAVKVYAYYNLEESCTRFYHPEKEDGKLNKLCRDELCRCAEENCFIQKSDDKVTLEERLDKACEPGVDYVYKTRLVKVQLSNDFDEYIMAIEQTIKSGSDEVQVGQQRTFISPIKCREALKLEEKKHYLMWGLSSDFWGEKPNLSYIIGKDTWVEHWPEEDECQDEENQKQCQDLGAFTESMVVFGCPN

B1: Clone I (scFv)
scFv: MQLVLTQSPSASASLGASVKLTCTLSSAHKTYTIDWYQQQPEKCPRYLMQLKSDGSYTKGSGIPDRFSGSSSGAERYLTISSLQSEDEADYYCGTEGVGGYVFGGGTKLTVLGGGGGSGGGGSGGGGSGGGGSQVQLVESGGGSVQPGRSLRLSCAASGFTFSNYAMNWVRQAPGKGLEWVAVISYDGSNKYYADSVKGRFTISRDNSKNTLYLQMNSLRAEDTASYYCARAVGYHHARLDPWGCGTSVTVSS
notes: also called exemplary antibody of the invention (Clone I); scFv of the invention
For B1, the “IC50 (nM), Alternative Pathway, Hemolysis (rabbit erythrocytes, human serum)” value (“IC50 (nM) … (rabbit erythrocytes, human serum)” below) in assay [1] was 705 nM. In addition, the “IC50 (nM), Alternative Pathway, MAC deposition (WEISLAB, human serum)” value in assay [1] was 344 nM. In addition, the “IC50 (nM), Classical Pathway, Hemolysis (antibody-sensitized sheep erythrocytes, human serum)” value (from here on “IC50 (nM), Classical Pathway, Hemolysis”) in [1] was 74 nM. In addition, in assay [1], the “IC50 (nM), Classical Pathway, MAC deposition (WEISLAB, human serum)” value is 79 nM. Moreover, in [1], the “IC50 (nM), Lectin Pathway, MAC deposition (WEISLAB, human serum)” value (“IC50 (nM), Lectin Pathway” below) turned out to be 67 nM. Further, the Kd in [2] is 0.148 nM; in [3], 0.152 nM; in [4] it was 0.14 nM; in [5], 0.149 nM; in [6], 0.135 nM; in assay [7] it was 0.267 nM. Further, the Kd stood at 0.16 nM in assay [8], 0.14 nM in [9], 0.152 nM in assay [10] and 0.149 nM in [11]. Also, the koff in assay [2] stood at 4.9e-05 s⁻¹; in [3] it was 4.7e-05 s⁻¹; in [4], 4.2e-05 s⁻¹; in assay [5], 4.8e-05 s⁻¹; in assay [6] it was 4.5e-05 s⁻¹; in assay [7], 6.3e-05 s⁻¹. Moreover, the kon came to 330000 M⁻¹ s⁻¹ in assay [2]; 310000 M⁻¹ s⁻¹ in assay [3]; 300000 M⁻¹ s⁻¹ in [4]; 320000 M⁻¹ s⁻¹ in assay [5]; 330000 M⁻¹ s⁻¹ in assay [6]; 240000 M⁻¹ s⁻¹ in assay [7].

B2: Clone IX (scFv)
scFv: MQLVLTQSPSASASLGASVKLTCTLSSAHKTYTIDWYQQQPEKGPRYLMQLKSEGSYTKGTGVPDRFSGSSSGAERYLTISSLQSEDSAVYYCGTDGVGGYVFGCGTKLTVLGGGGGSGGGGSGGGGSGGGGSQVQVVESGGGSVQPGRSLRLSCAVSGFSLYNYAMNWVRQAPGKCLEWIGIINVGGGTNYASWAKGRFTISTDNSKNTVYLQMNSLRAEDTASYYCARAVGYHHHALDPWGQGTSVTVSS
In [12], B2 yielded a Kd of 1.3 nM.

B3: Clone VIII (scFv)
scFv: B2 scFv with D96E, H237S, A238R
B3 came in with a Kd in assay [12] of 0.184 nM. In addition, the “fold increase in the binding affinity compared to Clone IV” value in [13] and in [14] was ~10 fold each time.

B4: Clone VII (scFv)
scFv: B2 scFv with D96E
As for B4, the dissociation constant Kd in assay [12] was found to be 1.1 nM.

B5: Clone II (scFv)
scFv: MQLVLTQSPSASASLGASVKLTCTLSSAHKTYTIDWYQQQPEKCPRYLMQLKSDGSYTKGSGIPDRFSGSSSGAERYLTISSLQSEDEADYYCGTEGVGGYVFGGGTKLTVLGGGGGSGGGGSGGGGSGGGGSQVQLVESGGGSVQPGRSLRLSCAASGFTFSNYAMNWVRQAPGKGLEWVAIINVGGGTNYADSVKGRFTISRDNSKNTLYLQMNSLRAEDTASYYCARAVGYHHARLDPWGCGTSVTVSS
notes: also called scFv of the invention
In the case of B5, in [1], the “IC50 (nM) … (rabbit erythrocytes, human serum)” value was 668 nM. In [1], the “IC50 (nM), Alternative Pathway, MAC deposition (WEISLAB, human serum)” value amounted to 360 nM. For the same molecule, the “IC50 (nM), Classical Pathway, Hemolysis” value in [1] was 69 nM. Further, the “IC50 (nM), Classical Pathway, MAC deposition (WEISLAB, human serum)” value in [1] amounted to 77 nM. The “IC50 (nM), Lectin Pathway” value in [1] came to 71 nM. Further, the Kd is 0.035 nM in assay [2]; 0.022 nM in assay [3]; < 0.04 nM in assay [4]; 0.05 nM in assay [5]; 0.021 nM in assay [6]; 0.07 nM in [7]. The Kd in assay [10] came to 0.022 nM; in assay [11], 0.05 nM. For the same molecule, the koff in assay [2] is 1e-05 s⁻¹; in assay [3] it was 5.5e-06 s⁻¹; in [4], < 1.1e-05 s⁻¹; in assay [5], 1.2e-05 s⁻¹; in assay [6] it was 7e-06 s⁻¹; in assay [7], 1.5e-05 s⁻¹. The kon stood at 300000 M⁻¹ s⁻¹ in assay [2]; 250000 M⁻¹ s⁻¹ in [3]; 290000 M⁻¹ s⁻¹ in assay [4]; 250000 M⁻¹ s⁻¹ in assay [5]; 330000 M⁻¹ s⁻¹ in assay [6]; 210000 M⁻¹ s⁻¹ in [7].

B6: Clone III (scFv)
scFv: B5 scFv with D54E
notes: as for B5
Turning to B6, the “IC50 (nM) … (rabbit erythrocytes, human serum)” value in [1] stood at 745 nM. Besides, the “IC50 (nM), Alternative Pathway, MAC deposition (WEISLAB, human serum)” value in assay [1] turned out to be 349 nM. Also, the “IC50 (nM), Classical Pathway, Hemolysis” value in assay [1] is 72 nM. In addition, the “IC50 (nM), Classical Pathway, MAC deposition (WEISLAB, human serum)” value in [1] is 73 nM. Further, in [1], the “IC50 (nM), Lectin Pathway” value turned out to be 64 nM. In addition, the dissociation constant Kd in [2] was 0.128 nM; in assay [3], 0.151 nM; in assay [4] it was 0.127 nM; in assay [5] it was 0.127 nM; in assay [6], 0.115 nM; in assay [7], 0.208 nM. In addition, the values for the Kd in [10] and in assay [11] were 0.151 nM and 0.127 nM, respectively. The koff came out at 3.5e-05 s⁻¹ in assay [2]; 3.6e-05 s⁻¹ in assay [3]; 3.2e-05 s⁻¹ in assay [4]; 3.1e-05 s⁻¹ in assay [5]; 3.2e-05 s⁻¹ in assay [6]; 4.3e-05 s⁻¹ in [7]. The on-rate constant (kon) was 270000 M⁻¹ s⁻¹ in assay [2]; 240000 M⁻¹ s⁻¹ in assay [3]; 250000 M⁻¹ s⁻¹ in assay [4]; 250000 M⁻¹ s⁻¹ in assay [5]; 280000 M⁻¹ s⁻¹ in assay [6]; 200000 M⁻¹ s⁻¹ in assay [7].

B7: Compound A3 Fab (Fab, V domains shown)
VH: QVQLVQSGAEVKKPGASVKVSCKASGYTFTDFYMDWVRQAPGQRLEWMGYIYPHNGGTTYNQQFTGRVTITVDKSASTAYMELSSLRSEDTAVYYCARRGGFDFDYWGQGTLVTVSS
VL: DIQMTQSPSSLSASVGDRVTITCKASENVDTYVSWYQQKPGKAPKLLIYGASNRYTGVPSRFSGSGSGTDFTFTISSLQPEDIATYHCGQSHSYPLTFGQGTKLEIKR
notes: also called NGM621 surrogate in a Fab format
In the case of B7, the “fold lower affinity to C3b than to intact human C3” value in [15] was > 100 fold. Besides, in assay [10], the Kd worked out at 0.34 nM.
